Measurements: patent US20030224453A1, “Structural models for cytoplasmic domains of transmembrane receptors” (priority 1998, published 2003)

Columns and labels:
talin [1] = molecular target: T1, talin (Homo sapiens, UniProt Q9Y490); test: Binding of resin-bound cytoplasmic domain model proteins to purified talin; parameters: Talin was purified from human platelets in accordance with well known procedures; from tissue; host or cells: human platelets; conditions: result in words
Procedure: (§1) Purified recombinant cytoplasmic domain proteins (500 μg) were dissolved in a mixture of 5 ml 20 mM Pipes, 50 mM NaCl, pH 6.8 and 1 ml 0.1 M sodium acetate, pH 3.5 and bound overnight to 80 μl of Ni^2+ saturated His-bind resin (Novagen). […] Resins were washed twice with 20 mM Pipes, 50 mM NaCl, pH 6.8, and stored at 4° C. with 0.1% sodium azide as suspensions with one volume of this buffer. Fifty microliters of such a suspension were added to 4.5 ml of cell lysates which had been diluted tenfold with buffer A containing 0.05% TRITON X-100, 3 mM MgCl2 and protease-inhibitors. After incubation overnight at 4° C., resins were washed five times with this buffer and finally heated in 50 μl of reducing sample buffer for SDS PAGE. Samples were separated on 4-20% SDS polyacrylamide gels (NOVEX) and either stained with Coomassie or transferred to Immobilon P membranes (Amersham Corp., Arlington Hts, Ill.). Membranes were blocked with TBS, 5% nonfat-mild powder and stained with streptavidin-peroxidase (VECTASTAIN) or specific antibodies. Bound peroxidase was detected with an enhanced chemiluminescence kit (Amersham).
Talin was purified from human platelets in accordance with well known procedures with an additional purification step using chromatography on phosphocellulose and stored at 1 mg/ml in 10 mM NaCl, 50% glycerol. […]

talin [2] = molecular target: T1, talin; test: Affinity chromatography of cell lysates on cytoplasmic domain mimics, talin detected; format: binding; parameters: endogenous in cells; host or cells: human platelets (also Jurkat, HT1080, mouse C2C12 myotubes); conditions: NHS-biotin-labeled human platelet lysates; result in words
Excerpt: (§2) To study possible influences of the structural changes induced by the Gly insertions, protein models were produced having the β1A cytoplasmic domain with one, two and three additional Gly residues inserted after the heptad-repeat motif (G2-, G3-, G4-β1A) and compared with the G1-β1A construct. As an additional control, a variant of the G4-β1A peptide was produced with a Tyr to Ala substitution in the membrane-proximal NPXY-motif (G4-β1A-Y788A) (FIG. 1). This mutation interferes with focal adhesion targeting and activation of integrins. The purified proteins were bound via their N=terminal His-Tag to a Ni^2+−resin and used in affinity chromatography experiments with lysates of NHS-biotin-labeled human platelets. Marked changes in the pattern of protein binding were observed as a consequence of the Gly insertions. Polypeptides migrating at 45, 56, 58, 140 and 240 kDa bound only to the mimics with Gly insertions. […] Using monoclonal antibodies, the 240 kDa and 45 kDa proteins were identified as filamin and actin, respectively. […] Talin bound to the G1- and G4-β1A construct but not to the Y788A-G4β1A construct. Thus, the structural changes in the model induced by the insertion of glycines into the coiled-coil motif and the integrin cytoplasmic domain sequence alter interactions of these proteins with cellular components. Alterations of the β1A tail that block cytoskeletal interactions, such as the Y788 mutation and β1B- and β1C-splice variants also abrogate binding to talin and filamin. Consequently, the observed in vitro interactions are likely to be biologically relevant.
Human platelets were obtained by centrifugation of freshly drawn blood samples at 1000 rpm for 20 minutes and sedimentation of the resulting platelet-rich plasma at 2600 rpm for 15 minutes. They were washed twice with 0.12 M NaCl, 0.0129 M trisodium citrate, 0.03 M glucose, pH 6.5, and once in Hepes-Saline (3.8 mM Hepes, 137 mM NaCl, 2.7 mM KCl, 5.6 mM D-Glucose, 3.3 mM Na2HPO4, pH 7.3-7.4). […]

filamin (ABP-280) [3] = molecular target: T2, filamin (ABP-280) (Homo sapiens, UniProt P21333); test: Binding of resin-bound cytoplasmic domain model proteins to purified filamin; parameters: Human uterus filamin (ABP-280) was prepared as a 1.5 mg/ml solution; from tissue; host or cells: human uterus; conditions: result in words
Procedure: as §1
Target sequence in this assay (P21333 whole entry, the tested form may be a part): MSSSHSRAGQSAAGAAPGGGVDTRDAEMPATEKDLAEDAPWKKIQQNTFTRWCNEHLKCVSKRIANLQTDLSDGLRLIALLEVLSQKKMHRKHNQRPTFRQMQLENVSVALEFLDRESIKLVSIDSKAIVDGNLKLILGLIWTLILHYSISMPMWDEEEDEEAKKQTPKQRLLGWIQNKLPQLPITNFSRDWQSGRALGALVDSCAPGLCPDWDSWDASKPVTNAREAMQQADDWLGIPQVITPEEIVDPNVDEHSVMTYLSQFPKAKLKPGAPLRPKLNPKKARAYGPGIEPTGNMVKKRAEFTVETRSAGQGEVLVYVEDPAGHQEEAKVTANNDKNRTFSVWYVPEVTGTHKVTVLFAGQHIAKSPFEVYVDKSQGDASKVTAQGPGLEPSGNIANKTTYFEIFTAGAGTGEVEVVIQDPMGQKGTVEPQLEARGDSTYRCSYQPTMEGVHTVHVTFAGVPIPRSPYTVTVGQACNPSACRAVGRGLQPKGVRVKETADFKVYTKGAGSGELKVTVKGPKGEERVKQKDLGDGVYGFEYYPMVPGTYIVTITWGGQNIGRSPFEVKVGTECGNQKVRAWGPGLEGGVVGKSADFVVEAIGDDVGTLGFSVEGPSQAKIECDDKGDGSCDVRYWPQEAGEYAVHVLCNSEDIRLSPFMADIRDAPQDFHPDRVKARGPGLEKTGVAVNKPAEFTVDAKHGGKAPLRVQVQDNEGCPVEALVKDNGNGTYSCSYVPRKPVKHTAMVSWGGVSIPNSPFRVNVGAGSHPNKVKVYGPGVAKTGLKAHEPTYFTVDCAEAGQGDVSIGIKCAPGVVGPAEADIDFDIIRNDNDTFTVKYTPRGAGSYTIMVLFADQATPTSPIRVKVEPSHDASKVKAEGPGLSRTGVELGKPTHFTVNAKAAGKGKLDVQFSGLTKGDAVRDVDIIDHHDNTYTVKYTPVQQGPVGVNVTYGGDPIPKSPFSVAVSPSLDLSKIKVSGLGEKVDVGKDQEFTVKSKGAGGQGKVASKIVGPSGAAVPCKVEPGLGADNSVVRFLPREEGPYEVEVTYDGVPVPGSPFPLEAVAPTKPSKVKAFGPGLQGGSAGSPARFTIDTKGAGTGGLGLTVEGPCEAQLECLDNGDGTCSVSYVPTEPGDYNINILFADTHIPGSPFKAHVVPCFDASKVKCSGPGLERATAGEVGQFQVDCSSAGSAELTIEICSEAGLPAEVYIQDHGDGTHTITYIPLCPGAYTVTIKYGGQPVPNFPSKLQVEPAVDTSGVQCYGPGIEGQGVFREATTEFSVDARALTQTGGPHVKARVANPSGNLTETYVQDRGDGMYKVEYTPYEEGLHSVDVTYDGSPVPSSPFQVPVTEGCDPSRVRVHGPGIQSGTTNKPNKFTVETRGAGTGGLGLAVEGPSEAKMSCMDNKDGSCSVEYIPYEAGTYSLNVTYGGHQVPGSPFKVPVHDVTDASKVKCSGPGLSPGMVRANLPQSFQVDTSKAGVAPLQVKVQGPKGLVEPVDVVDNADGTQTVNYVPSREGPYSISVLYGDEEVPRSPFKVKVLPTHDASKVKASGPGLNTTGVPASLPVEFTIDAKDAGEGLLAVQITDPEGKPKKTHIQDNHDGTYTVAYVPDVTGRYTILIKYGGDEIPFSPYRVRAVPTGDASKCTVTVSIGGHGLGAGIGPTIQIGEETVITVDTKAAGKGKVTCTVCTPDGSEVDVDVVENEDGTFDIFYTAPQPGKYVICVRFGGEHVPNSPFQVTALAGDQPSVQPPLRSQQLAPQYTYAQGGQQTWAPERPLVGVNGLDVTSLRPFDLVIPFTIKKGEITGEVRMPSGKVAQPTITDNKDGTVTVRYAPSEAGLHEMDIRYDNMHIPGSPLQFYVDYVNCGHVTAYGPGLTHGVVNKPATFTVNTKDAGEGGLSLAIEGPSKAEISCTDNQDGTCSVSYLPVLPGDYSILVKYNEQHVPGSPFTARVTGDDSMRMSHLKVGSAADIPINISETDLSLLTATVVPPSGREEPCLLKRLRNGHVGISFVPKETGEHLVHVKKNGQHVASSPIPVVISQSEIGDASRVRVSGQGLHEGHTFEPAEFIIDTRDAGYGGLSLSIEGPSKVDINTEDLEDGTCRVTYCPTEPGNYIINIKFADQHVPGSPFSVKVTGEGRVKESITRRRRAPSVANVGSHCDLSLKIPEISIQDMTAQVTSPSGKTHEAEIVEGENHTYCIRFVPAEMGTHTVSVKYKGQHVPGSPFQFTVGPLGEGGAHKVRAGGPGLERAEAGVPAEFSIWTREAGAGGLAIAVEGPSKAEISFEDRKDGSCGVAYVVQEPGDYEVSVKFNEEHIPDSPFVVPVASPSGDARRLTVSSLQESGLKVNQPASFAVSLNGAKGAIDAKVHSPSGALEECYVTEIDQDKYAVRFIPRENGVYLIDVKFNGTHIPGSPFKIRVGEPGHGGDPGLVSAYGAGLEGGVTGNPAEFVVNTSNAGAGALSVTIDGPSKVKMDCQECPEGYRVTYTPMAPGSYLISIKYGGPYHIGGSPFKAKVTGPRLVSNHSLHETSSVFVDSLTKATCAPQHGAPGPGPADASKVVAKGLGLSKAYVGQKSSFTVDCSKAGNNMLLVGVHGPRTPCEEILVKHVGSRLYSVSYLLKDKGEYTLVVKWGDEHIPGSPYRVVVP
Human uterus filamin (ABP-280) was prepared as a 1.5 mg/ml solution in 0.6 M KCl, 0.5 mM ATP, 0.5 mM DTT, 10 mM imidazole, pH 7.5. For binding assays performed as described in Example 5, this solution was diluted 1/12 with buffer A, 0.05% TRITON X-100, 3 mM MgCl2, 2 mg/ml BSA, protease-inhibitors (see Example 5), omitting the 50 mM NaCl (see Example 5), and resins with bound model proteins were added. Washing was performed in this buffer without BSA and with additional 50 mM KCl.
Talin was purified from human platelets in accordance with well known procedures with an additional purification step using chromatography on phosphocellulose and stored at 1 mg/ml in 10 mM NaCl, 50% glycerol. This solution was diluted to either 87 or 17 μg/ml talin with buffer A, 0.05% TRITON X-100, 3 mM MgCl2, 2 mg/ml BSA and protease inhibitors (see Example 5, including 0.1 mM E-64) and processed as indicated in the binding assays with cell lysates. […]

filamin = test: Affinity chromatography of cell lysates on cytoplasmic domain mimics, filamin (240 kDa) detected; format: binding; conditions: NHS-biotin-labeled human platelet lysates; result in words
Excerpt: as §2, with “Alterations of the β1A tail that block cytoskeletal interactions, such as the Y788 mutation and β1B- and β1C-splice variants also abrogate binding to talin and filamin. Consequently, the observed in vitro interactions are likely to be biologically relevant.” left out

filamin (ABP-280) [4] = molecular target: T2, filamin (ABP-280); test: densitometry of Coomassie-stained gels; purified filamin on model protein resin
talin [5] = molecular target: T1, talin; test: densitometry of Coomassie-stained gels; purified talin on model protein resin

T1 sequence (Q9Y490 whole entry, the tested form may be a part): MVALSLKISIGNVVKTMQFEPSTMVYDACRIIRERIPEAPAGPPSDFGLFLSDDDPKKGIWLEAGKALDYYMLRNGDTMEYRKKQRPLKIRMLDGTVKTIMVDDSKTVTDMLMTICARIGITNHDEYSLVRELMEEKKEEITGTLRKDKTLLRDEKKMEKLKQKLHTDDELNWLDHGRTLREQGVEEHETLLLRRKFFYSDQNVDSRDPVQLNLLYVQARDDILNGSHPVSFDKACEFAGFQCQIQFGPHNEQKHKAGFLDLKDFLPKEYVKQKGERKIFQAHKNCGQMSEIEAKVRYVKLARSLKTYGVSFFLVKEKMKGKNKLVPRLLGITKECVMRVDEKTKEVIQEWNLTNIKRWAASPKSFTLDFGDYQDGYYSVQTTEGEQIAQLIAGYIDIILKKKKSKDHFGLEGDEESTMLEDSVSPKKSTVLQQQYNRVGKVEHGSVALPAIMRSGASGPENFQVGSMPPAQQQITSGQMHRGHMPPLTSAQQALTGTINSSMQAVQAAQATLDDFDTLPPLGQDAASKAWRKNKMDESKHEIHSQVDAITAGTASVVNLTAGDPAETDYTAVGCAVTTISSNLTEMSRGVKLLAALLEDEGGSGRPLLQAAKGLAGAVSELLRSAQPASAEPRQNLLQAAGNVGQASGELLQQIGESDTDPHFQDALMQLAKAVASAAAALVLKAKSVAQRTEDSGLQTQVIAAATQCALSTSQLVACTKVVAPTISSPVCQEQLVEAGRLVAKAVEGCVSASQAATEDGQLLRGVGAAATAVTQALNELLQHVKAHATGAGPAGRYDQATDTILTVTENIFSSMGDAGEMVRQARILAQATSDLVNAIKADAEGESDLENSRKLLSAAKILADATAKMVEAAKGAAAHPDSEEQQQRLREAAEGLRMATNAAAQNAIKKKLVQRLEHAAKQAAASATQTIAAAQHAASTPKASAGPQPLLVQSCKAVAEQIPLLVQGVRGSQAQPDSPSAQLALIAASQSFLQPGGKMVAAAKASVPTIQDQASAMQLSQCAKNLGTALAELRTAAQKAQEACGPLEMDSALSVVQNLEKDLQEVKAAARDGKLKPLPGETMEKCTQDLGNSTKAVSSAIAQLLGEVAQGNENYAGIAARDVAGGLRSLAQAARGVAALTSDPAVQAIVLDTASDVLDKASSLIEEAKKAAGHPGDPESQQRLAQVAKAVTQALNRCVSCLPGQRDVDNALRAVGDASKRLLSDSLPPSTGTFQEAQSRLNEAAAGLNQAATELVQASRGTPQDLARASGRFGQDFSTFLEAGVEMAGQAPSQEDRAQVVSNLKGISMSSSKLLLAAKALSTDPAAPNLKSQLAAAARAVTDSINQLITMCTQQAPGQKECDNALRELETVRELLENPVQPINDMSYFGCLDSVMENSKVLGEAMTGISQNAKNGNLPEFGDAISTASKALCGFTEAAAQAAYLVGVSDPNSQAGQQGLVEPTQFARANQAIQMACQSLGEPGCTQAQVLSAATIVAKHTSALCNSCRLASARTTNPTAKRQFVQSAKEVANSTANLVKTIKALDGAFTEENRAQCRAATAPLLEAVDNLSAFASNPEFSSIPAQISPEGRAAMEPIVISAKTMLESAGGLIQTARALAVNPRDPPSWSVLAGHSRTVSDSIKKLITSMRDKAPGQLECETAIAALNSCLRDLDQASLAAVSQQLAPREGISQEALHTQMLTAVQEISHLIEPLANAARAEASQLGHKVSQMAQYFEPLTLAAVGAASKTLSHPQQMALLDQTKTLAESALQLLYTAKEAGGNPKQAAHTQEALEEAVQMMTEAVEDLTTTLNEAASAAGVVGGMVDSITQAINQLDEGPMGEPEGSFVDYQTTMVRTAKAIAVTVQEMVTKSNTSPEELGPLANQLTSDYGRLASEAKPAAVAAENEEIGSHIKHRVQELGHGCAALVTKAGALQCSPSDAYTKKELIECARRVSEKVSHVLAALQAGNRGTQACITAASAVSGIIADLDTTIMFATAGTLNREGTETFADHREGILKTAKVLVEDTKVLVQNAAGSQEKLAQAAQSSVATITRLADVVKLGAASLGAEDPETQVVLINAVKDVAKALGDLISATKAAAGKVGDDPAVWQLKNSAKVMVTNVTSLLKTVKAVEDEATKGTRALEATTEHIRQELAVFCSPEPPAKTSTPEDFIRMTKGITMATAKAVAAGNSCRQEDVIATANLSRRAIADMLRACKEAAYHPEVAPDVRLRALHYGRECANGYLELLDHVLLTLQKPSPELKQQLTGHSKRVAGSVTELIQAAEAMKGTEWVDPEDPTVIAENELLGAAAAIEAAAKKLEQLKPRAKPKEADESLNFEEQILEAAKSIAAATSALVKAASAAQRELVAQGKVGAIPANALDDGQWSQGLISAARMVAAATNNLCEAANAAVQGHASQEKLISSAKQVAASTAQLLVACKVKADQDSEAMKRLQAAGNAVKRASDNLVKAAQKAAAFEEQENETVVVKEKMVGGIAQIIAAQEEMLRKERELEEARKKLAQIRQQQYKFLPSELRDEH

B1: G4-β1A-Y788A: G4-β1A variant with Tyr to Ala substitution in the membrane-proximal NPXY-motif (protein)
chain: GSSHHHHHHSSGLVPRGSHMKLEALEGRLDALEGKLEALEGKLDALEGGGGKLLMIIHDRREFAKFEKEKMNAKWDTGENPIAKSAVTTVVNPKYEGK
- binding of purified talin compared to G4-β1A (talin [1]): functionally reduced
- talin binding from cell lysates (talin [2]): not
- binding of purified filamin, comparison between constructs (filamin (ABP-280) [3]): functionally reduced
- filamin (240 kDa) binding from cell lysates (filamin): suppressed the interaction with the 240 kDa

B2: β7 construct (G1 or G4 variant not stated) (designed binder, part only; not given: number of added glycines, part only)
chain, part: GSSHHHHHHSSGLVPRGSHMKLEALEGRLDALEGKLEALEGKLDALEGKLSVEIYDRREYSRFEKEQQQLNWKQDSNPLYKSAITTTINPRFQEADSPTL
- binding of purified filamin, comparison between constructs (filamin (ABP-280) [3]): bound more filamin than G4-β1A or G4-β1D
- fold more filamin bound than by the β1A model protein (filamin (ABP-280) [4]): 8.4 fold

B3: β1D construct (G1 or G4 variant not stated) (designed binder, part only; not given: number of added glycines, part only)
chain, part: GSSHHHHHHSSGLVPRGSHMKLEALEGRLDALEGKLEALEGKLDALEGKLLMIIHDRREFAKFEKEKMNAKWDTQENPIYKSPINNFKNPNYGRKAGL
- fold more talin bound than by the β1A model protein (talin [5]): 9 fold
